According to the DeepSol protein solubility set:

Assay: soluble on expression in E. coli; label from the status in PepcDB or PDB records

Sequence	soluble on expression in E. coli
YTDEEWGFLQNQMICDLCEGYAIYRPRYILPDYNVYIQKGCEFLELPPPKDLDEALDGLLILYSHVPSITTYPVYIGRLDVLLEPFITDEEKDYIKIKRFLNHIDKTVPDSFCHANIGPYDTKAGRLILRAVIDLEAPTPNMTIRYDKSKTSREFAELAAKACLLVSKPSFANDAYYISDLGEEYGVASCYNALPECGGAYTLTRLRLGTIARTCKSADEMLNELLPRVAKCALSTMDKRHKFVVEESNFFNSSFLEKEGFIKRTNFTGMFAIVGLADATNHLLQCEGLNETFGKSVRGDEIATAIMDKLKEITDAHEGVYAERTGNRYLLHAQVGASNHEEDKRNAPAHRIRVGEEPTLLAHLKQSAPFHKYFPSGTGDLFAFDQTYVDHCDAVVDIIDGAFSLGYRYITTYLKNTDLIRVTGYLVKKSEVEKYRKGEVALR	not soluble
YTIYKEPLSLAPFEKIPSPLRRGLGKVAEVFPDGMRGKSLLQRGSMTMEERYYGNARSFNFDQMKRVIPWAKKEWDHREVTAPIYAQSEHMDPVARMQHLDLFTWMRGDILVKADKINMAHSLELRVPFLDKEVFEVAETIPYDLKIANGTTKYALRKAMEQIVPPHVLHRKKLGFPVPMRHWLAGDELFGWAQDTINESMTDQYFDKAAVLAMLNEHKNGVSDHSRRLWTVLAFMIWHGIFVEHRIDPGIEKRDYPVYL	not soluble
YTPPGRLGDESSGPRTDPRFSPAMVEALATFGLDAVAAAPPVSASDDLPTVLAAVGASHDGFQAVYDSIALDLPTDRDDVETSTETILGVDGNEITLHVFRPAGVEGVLPGLVYTHGGGMTILTTDNRVHRRWCTDLAAAGSVVVMVDFRNAWTAEGHHPFPSGVEDCLAAVLWVDEHRESLGLSGVVVQGESGGGNLAIATTLLAKRRGRLDAIDGVYASIPYISGGYAWDHERRLTELPSLVENDGYFIENGGMALLVRAYDPTGEHAEDPIAWPYFASEDELRGLPPFVVAVNELDPLRDEGIAFARRLARAGVDVAARVNIGLVHGADVIFRHWLPAALESTVRDVAGFAADRARLR	soluble
YVLAVTACPTGIAHTYMARDALKKQAEKMNIKIKVETNGSSGIKNHLTEQDIERATGIIVAADVHVETDRFDGKNVVEVPVADGIKRPEELINTALDTNRKPF	not soluble
YWASSQLTQLFLSTDLESLEPTCLSKDTIYQWKVVQTFGDRLRLRQRVLATAIVLLRRYMLKKNEEKGFSLEALVATCIYLSCKVEECPVHIRTICNEANDLWSLKVKLSRSNISEIEFEIISVLDAFLIVHHPYTSLEQAFHDGIINQKQLEFAWSIVNDSYASSLCLMAHPHQLAYAALLISCCNDENTIPKLLDLIKSTDAFKVILCVQRIISIYYFEDIEAAALEHHHHHH	soluble
